Measured values: the supplement of paper PMC7125110
± gives the standard error. For some assays here: This sample holds only a part of the variants without activity.

B1: glmS ribozyme (parent)
chain: AUAAAAGCGCCAGAACUACAGAAAUGUAGUUGACGAGGAGGAGGUUUAUCGAAUUUUCGGCGGAUGCCUCCAAA

How the values were obtained:
Settings in all cases: with glucosamine-6-phosphate
glucosamine-6-phosphate [1] = variants of: B1; test: kcat; higher = faster cleavage; RNA array
Summary of the method: (§1)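 Tiles bearing barcoded ribozyme variants, transcribed in situ by E. coli RNA polymerase on sequenced MiSeq chips, were imaged over ~14 h at 37 °C using a hybridised Cy3 probe. Glucosamine-6-phosphate was supplied at 40 μM to 10 mM in HEPES/KCl/Mg(OAc)2 buffer. kobs came from one- or two-exponential decay fits to normalised per-tile medians, and weighted Michaelis–Menten fits then provided kcat and KM.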

glucosamine-6-phosphate [2] = variants of: B1; test: self-cleavage kobs at 40 uM GlcN6P; higher = faster cleavage; RNA array
Summary of the method: as §1

glucosamine-6-phosphate [3] = variants of: B1; test: self-cleavage kobs at 160 uM GlcN6P; higher = faster cleavage; RNA array
Summary of the method: as §1

glucosamine-6-phosphate [4] = variants of: B1; test: self-cleavage kobs at 640 uM GlcN6P; higher = faster cleavage; RNA array
Summary of the method: as §1

glucosamine-6-phosphate [5] = variants of: B1; test: self-cleavage kobs at 2500 uM GlcN6P; higher = faster cleavage; RNA array
Summary of the method: as §1

glucosamine-6-phosphate [6] = variants of: B1; test: self-cleavage kobs at 10000 uM GlcN6P; higher = faster cleavage; RNA array
Summary of the method: as §1

glucosamine-6-phosphate [7] = variants of: B1; test: KM; higher = weaker cofactor use; RNA array
Summary of the method: as §1

Row | Variant | kcat (glucosamine-6-phosphate [1]) | self-cleavage kobs at 40 uM GlcN6P (glucosamine-6-phosphate [2]) | self-cleavage kobs at 160 uM GlcN6P (glucosamine-6-phosphate [3]) | self-cleavage kobs at 640 uM GlcN6P (glucosamine-6-phosphate [4]) | self-cleavage kobs at 2500 uM GlcN6P (glucosamine-6-phosphate [5]) | self-cleavage kobs at 10000 uM GlcN6P (glucosamine-6-phosphate [6]) | KM (glucosamine-6-phosphate [7])
1 | C11U G59A | 0.0105 ± 0.0043 s⁻¹ | 0.000335 ± 3.7e-05 s⁻¹ | 0.0014 ± 0.00027 s⁻¹ | 0.00203 ± 0.0004 s⁻¹ | 0.00582 ± 0.0018 s⁻¹ | 0.0116 ± 0.0016 s⁻¹ | 
2 | A12U U55C | 0.0176 ± 0.0056 s⁻¹ | 0.0016 ± 0.00016 s⁻¹ | 0.00304 ± 0.00062 s⁻¹ | 0.0204 ± 0.0053 s⁻¹ | 0.0186 ± 0.0045 s⁻¹ | 0.0162 ± 0.0029 s⁻¹ | 464 ± 200 µM
3 | C11U G41A | 8.97e-05 ± 1e-05 s⁻¹ |  |  | 3.01e-05 ± 1.2e-05 s⁻¹ | 8.81e-05 ± 1.8e-05 s⁻¹ | 7.91e-05 ± 8.6e-06 s⁻¹ | 
4 | C11U G41U | 9.92e-05 ± 3.5e-06 s⁻¹ |  |  | 4.38e-05 ± 1.5e-05 s⁻¹ | 8.28e-05 ± 1.7e-05 s⁻¹ | 9.12e-05 ± 1e-05 s⁻¹ | 740 ± 130 µM
5 | G13C A39U | 6.85e-05 ± 4.7e-06 s⁻¹ | < 1e-05 s⁻¹ |  |  | 2.64e-05 ± 1e-05 s⁻¹ | 4.82e-05 ± 7.1e-06 s⁻¹ | 4180 ± 820 µM
6 | G13C A39G | 0.000183 ± 2.5e-05 s⁻¹ |  |  |  | 7.1e-05 ± 1.4e-05 s⁻¹ | 0.000128 ± 2e-05 s⁻¹ | 4230 ± 1300 µM
7 | A12U U65A | 0.0089 ± 0.0024 s⁻¹ | 0.000192 ± 2.4e-05 s⁻¹ | 0.000483 ± 5.8e-05 s⁻¹ | 0.00176 ± 0.00027 s⁻¹ | 0.00391 ± 0.00071 s⁻¹ | 0.00799 ± 0.0012 s⁻¹ | 2460 ± 840 µM
8 | A12U U65C | 0.0021 ± 0.00079 s⁻¹ | 4.28e-05 ± 1.2e-05 s⁻¹ | 0.000217 ± 5.2e-05 s⁻¹ | 0.000421 ± 9.9e-05 s⁻¹ | 0.00209 ± 0.00035 s⁻¹ | 0.00151 ± 0.00034 s⁻¹ | 
9 | G13A C58G | 0.000377 ± 8.6e-05 s⁻¹ |  |  | 2.8e-05 ± 7.8e-06 s⁻¹ | 0.000101 ± 1.7e-05 s⁻¹ | 0.000217 ± 3.4e-05 s⁻¹ | 7150 ± 2500 µM
10 | G13A G60U | < 1e-05 s⁻¹ |  |  |  |  | < 1e-05 s⁻¹ | 
11 | A12G U30A | 0.00011 ± 1.9e-06 s⁻¹ |  |  |  | 5.17e-05 ± 9.7e-06 s⁻¹ | 8.52e-05 ± 7.5e-06 s⁻¹ | 2890 ± 160 µM
12 | C11U A64G | 0.00227 ± 0.00061 s⁻¹ | 8.94e-05 ± 9.3e-06 s⁻¹ | 0.0002 ± 2.5e-05 s⁻¹ | 0.000741 ± 6.4e-05 s⁻¹ | 0.00108 ± 0.00014 s⁻¹ | 0.00247 ± 0.00021 s⁻¹ | 1370 ± 580 µM
13 | A12C A52G | 0.000882 ± 0.00021 s⁻¹ | 2.37e-05 ± 1e-05 s⁻¹ | 4.98e-05 ± 1.3e-05 s⁻¹ | 0.000216 ± 2.4e-05 s⁻¹ | 0.000359 ± 6.3e-05 s⁻¹ | 0.00082 ± 0.00011 s⁻¹ | 2290 ± 880 µM
14 | A12C C50A C68G | 2.56e-05 ± 8.7e-06 s⁻¹ |  |  |  |  |  | 
15 | A12G G13A | 6.3e-05 ± 2.4e-06 s⁻¹ |  |  |  | 2.7e-05 ± 9.7e-06 s⁻¹ | 4.66e-05 ± 7.4e-06 s⁻¹ | 3470 ± 390 µM
